{"source": "the DeepSol protein solubility set"}
{"assay": "soluble on expression in E. coli; label from the status in PepcDB or PDB records"}
{"sequence": "AISQDYNINMSGGNDKGTYYAGLGYNRQEGLPIKTFYERYSFVLNASYKITDWLTSSSNFNYNRANWKNMPGSQTSEGNYFGRIMSTPPTVRFQDEDGNPTLGPVAGDGNQNYQPDKWWNFNQSDKFTMVQAFQIDILKNLSVKGTANWYYSESLAESFTRDYENTPGQFVRTRSSSASFSRNFSQTYNVVLNYNQTFAKDHNVAVMLGMEYFDRYSRSFSASGSGAPTDDFADLSLTDNGEGKRSIDSGHSDYRILSYFGRLNYDYKGRYLLSAVFRQDGYSSLLGDNRWGFFPGVSAGWIFGQENFVKNALPFLSFGKLRASYGVNGNATGIGAYDLQGSYNSQKYNGNVGFLIGALPNPGLKWEKTRTAEVGIDMSFFENRLNANFTYYNRLTSDKYANLSLPSTTGFSSIKNNNGKFRNSGVEIELSGKILKTKDWSWDLGGNISFNKNKIVSLPDNGLIRNQQDAAQIYSGRQLSDGTYEKIWVGGNQEGYEPGVLIAYKADGLYRSWDEIPGDLVVTSGNYFGKKMYGPEAWKKLSSAEQKNALPIQPGDVKWRDINGDGMIDNYDQVVVGNTNPHWIGGFNTTLRWKNFQLYGRFDFAFDYWIYDNTTPWFLGCMQGTYNTTKDVFNTWSEENPNAKYPRFVYADQLMNANYYRTSTLFAYKGNYLAIREISLSYSLPKAWANKAYCQKVDVSITGQNLGYITSANVASPEVSSAGSGYALPRTLLFGLNVTF", "soluble on expression in E. coli": "not soluble"}
{"sequence": "SDLVITQELARAESQQDAASLKKAYELIKSANLGKSEFDPSESFSPDLFVLCAEQALKMRQPEVSEDCIQMYFKVKAPITQFLGRAHLCRAQMCAPKSAENLEEFENCVTEYMKAINFAKGEPRYYFLVYNASVLYWQMVRPFLKPGYRHHLIPSLSQIINVLSQTEEEDKEWRAELMLELLECYLQAGRKEEAARFCSTAAPFIKSHVPQKYRQIFSVMVNQRIRNRDVRSNFLKSHCSENCVEIT", "soluble on expression in E. coli": "soluble"}
{"sequence": "MAHHHHHHMSGYLKVLSPDGRWETRYIEIDDAKLRIWRTKGDKESSAAVVKELDLKCATLREVSEPNTWAVQPEKAEATYFQADGEERKTEWMDTLRHYNSSSSGSEKVTLRDFEKKFVLGKGSYGKVFMVVKKDTDKWYAMKEMSAEKMRQAEIKAPFAERIILEEIDHPFIVHLHYSFQEQGNLYMILDLLAGGELFTYIEQHAPLDEEVVKFYAAEVALALGYLHSRNIIYRDLKPENVVFDRDGHACLTDFGLAKANVHEPNAVTYCGTNEYLAPELLKGVPHGKAVDWWSLGLMMCEMLFNDLPFYDENPMQMQMKILTEDVAFPPHIQITEETKDLIRCLLNKNPERRLQTLEAFKAHKCFSNLDFCLLEARKLKAPITPDPNPAHNFAKEFTSEVIVQNESPSQAVVTLAGYTYDRDLSEQEKSPSHSPTIAEELRQRRASKKRPTNGSDAASPPVTGENRTSNSSPAGVPMKQAAPGPVKKVEHHIPAKVAPQAARKKLTGNKSFDKPTK", "soluble on expression in E. coli": "soluble"}
{"sequence": "TDRVIMSIFTSDKLVDQSWGSLAYLAQLHVEKKFPVDIELYSEVDTIEKMEESLHASIDRKTELIIGHGREFSDIFTKVAPSYPTVRFVTIHGSATYENQTVYTFEKGKIELIAALAATMKSKTRKVALIDAYDGREDEPYFERGLEKYANDIEFFYYVVNSRHDGKQAKAVMDKLIKEGVDVVYSRGNAFNRDVIHYAKQHDIYVIGFLDDQSYLGEEHVLTSVLNDVTQAYVKI", "soluble on expression in E. coli": "not soluble"}
{"sequence": "MQHLEAVRNILGDVLNLGERKHTLTASSVLLGNIPELDSMAVVNVITALEEYFDFSVDDDEISAQTFETLGSLALFVEHKLSH", "soluble on expression in E. coli": "soluble"}
{"sequence": "MATTLKPVDAVVVGFGWTGAILAKELTEAGLNVVALERGENRDTYPDGAYPNTLDELTYNTRGKLFQNLSKSTVSIRHGINDTALPYRQLSAFLPGDGVGGAGLHWSGVHFRIMPEELRLRSHYEERYGKKFIPEGMTIQDYGVSYEELEPHFDFAEKVFGTSGTAHTVKGQVVGKGNPFAADRSDDFPLPALRQVYSAQLFRKAAEELGLHPYDLPAANASGPWTNPYGVQMGPCNFCGFCSGYACYMYSKASPNLNILPALRQTPLFELRANCNVLKVNLDSDGRQATGVTYVDAQGREIVQPAKLVIISAFQFHNVRLLLLSGIGKPYDPRTGEGVVGKNFAYQNMATIKAFFDKDVHTNPFVGTGGGGVAVDDFNADNFDHGPLGFVGGSPMWVNQAGSKPIGGLAVPPGTPSWGSGWKQAVKDAYTHTVSMDAHGSNMTYRDNYLDLDPTYKDAYGQPLLRMTFDWKDNEIRMSRYVTEHMRKIAEAMNPKAISVSVKNFGDHFNTRVYQTTHLLGGAIMGSDPKTSVLNRYLQSWDVHNVFVMGASAFPQGTGYNPTGLVAALAYWSAKAIREQYLKNPGPLVQALEHHHHHH", "soluble on expression in E. coli": "not soluble"}
{"sequence": "EAEERQRNMINKTHVGLLLIDGQGRIEEINPMAKRYFSLSDSMVRQLQAWSLFDTGNPNATVPLLLKNLTEHQELADITNVETVARRSDGSLFPVLFSLIAVSWKDRRHYLVTLIDIS", "soluble on expression in E. coli": "not soluble"}
{"sequence": "MEKDNICYKTYVEILERELVPAMGCTEPIALAYCSAKARSVLGVLPDKVLVEVSGNIVKNVKSVIVPNSGGRRGIEAAAAVGILAGREDLELEVLSKVTDEDIAGLGAYMEKVEITVAPLDTPYLLDMAVTAKKDGSRARVRIAQEHTNIIEIEKDGKILFEKQAGEEEDCDAPDYSLLTIEKIYDFADTADLEDVKAVLDRQIAYNTAIAEEGLRGDYGANIGRVLMEEYGDRIENRAKAMAAAGSDARMNGCDLPVIINSGSGNQGMTASLPVIEYAKELKCSREKLYRALLLSNLVTLHQKTGIGRLSAYCGAVSAGAGAGAGIAYLEGGDLKVVAHTLVNALAITSGIVCDGAKASCAAKIAVAVDTGILGYKMYKKGQQFYGGDGLVAKGVENTIRNIGRLGKEGMKETDKEIIRIMTE", "soluble on expression in E. coli": "not soluble"}
{"sequence": "MGSDKIHHHHHHMSNPAYTAMWEKLNLDIPAHDGLLEVLGKFYGDIYMSQQGRLQGMEYLDFVLSEVHGLRIQELQQAKEQGKKIIGTFCVFVPEEITLAAGAVHVGLCSGADAGTEEAEKLVPRNTCALIKSFIGFKLARLCPFTESCDLVVGETTCDGKKKAYEAFAEHVPMHVMEVPNTKSDAARDLFKTEVLRYMQALQQLTGTAITPQALASGIRAVNAKRRALQRLSALRSADPAPISGRDALLINQVSFYDDPERFTHSINALCDQMEERIARKEGIAPAGTPRLLLSGCPMAVPNWKLPYIMESSGAVIVGEESCIGTRNTRDLVDESQETLDGMIDALVDRYMKIDCACFTPNTERLHNVTAMAQELKADGIVHYALKFCQPYAHEAFKIEKAAREKDIPVLSVETDYSMEDAEQLKTRVEAFVEMVRG", "soluble on expression in E. coli": "not soluble"}
{"sequence": "MADYWKDVLPVDPYVVKSRSMLQDIDRQIITQLYQPLIGPVAFSLYMTLWGELEQNRLWGGESTHRQLMGMTQSNLKTIHQEQGKLEGIGLLKVYMKESERQERLFIYELLPPLRPNEFFEDGMLNVFLYNRVGKTKYQQLKQFFTHPAISEDAKDITRPFNHAFESLQPSEWKLTSDMEETVRLAEGSEYTSVGQSPSYTITEDVFDFDLFLAGLSETMIPRKAMTQQVRDTIKKLSYLYGIDPLQMQNVVMSAIDERDVITTEALRKAASDWYQIERNGQLPDLVEKTQPVHLREGEQPAEEDSLDGKLIALLEAISPKKLLQDIADGTEPSKADLKIIEEIMFEQKLEPGVTNVLIYYVMLKTDMKLSKNYIQKIASHWARKKVKTVREAMKLAIEENRQYLEWAEGKTKSSKRNQKVIREEKLPDWMTEKETASDSESGQQKLHPQDLEEQKKKMMEEMQKLKKYSAY", "soluble on expression in E. coli": "not soluble"}
{"sequence": "MGSDKIHHHHHHMNSNQLAFTIPISREMINIANKLSQQQRNEQKTREVYLNTLALLAVEFFCQCMEIETEFSKSYGLDSVVLSLMNTASIFIKDKGLLECRPVLPREDFCEIPAEILSERIGYMVVEIDELDRQAKIVGFVESVSNEKLALSKLGSLQDFLIYLQKLQKIENYDPSNPDISEIARNQLNESIVKLSKWFKGLLDSGWEYELAIAKDIPNVLAVPKDISPVNVTDKEEVGGARIIHLMHLSEPVLLILRQTRLSPDEIEIILRLYPASESIFLLDGIKMTLLDEKDNPIRQLEKQAKASNWLQLRFKGNVGDKFSLKISFRGDSVITKFII", "soluble on expression in E. coli": "not soluble"}
{"sequence": "MNQKYILSANNNSLIEEIHNTVQSIGYCIVRGLNLNHLDGSRRNKKLFDFLSQLGMLTNHKGDGFKSIFWDIKY", "soluble on expression in E. coli": "not soluble"}
{"sequence": "MGSDKIHHHHHHAENNDDCFRGVPLQVKLPAGILSETMQDINIYVFDGSDRLLDILPIRSLEPVILSYPGIPSLHCIAWGNTQDGTMYVSPLKTGDPLSAGFISLKPSAVTRAQKSIFISPTDLFYGELNVDNTSTSNRIEEKEMSVSRMVASMNITIRGLELLSQSNEGVYSIVVHETASRVDFEGRYGGDPASYAFSPRFEAGKDYIIPPFNLFPTTVGSGISIDIYRNGSLLRSISTDSGNQPILPVVGKTLNVLLNFRLDVDVELALTGWGEEYIWKEYN", "soluble on expression in E. coli": "not soluble"}
{"sequence": "MAHHHHHHMLRRVSLSALVQRVAAGAVIATAGRTIVVFSQQHHILESNQRARNSPSNVWIEDWEADRLGMKPEPGALPTQLVLDKQLELFNFDQLLSPPEVMEAPKHSSYSSRKVYGERLQFELNDRAQRHSYQSKWWITRGQAYKENLQFKANARSSILLTKSQIKLFHSSQLSGGEALQQYPVSGGSRRVYSKKGEAFQLLQDHIKSNDFNSGLYFTRRQMEFFKLAPLPDQVPVVQEAATGDRHLIYNVDQLEDPHLALKTLQRAPVNVPTFLLSGEPIMSENTRKFPKTFRSNYWLTGRDAELYQWPIKESERRRGVPFSTGTSAPVQYELFNVEQLSNPDEAFARAGLLIQ", "soluble on expression in E. coli": "soluble"}
{"sequence": "MKECKKCKSNEYTNKQLVMMINECGHPLCKNCVDNIFALNSGNCHVCNRVLRKNNFREQIYEDPLIDKETFLRRKLRKIYNLKQDDFENLREFGDYQERFETVVYNLVFETNVNETNAEIQAFEEKHKEQIDRNKRRLDDDQKWIEDQLREERAMKARMTDHMEMDAKEQEAASAVTDTRKIMDELRDSNVAAEVILDRERKKQIEKELEEKEEQEKRKRRNKEMLQTRKRAAENMSFNTVIRVAGRAYVHQPLELVINGPPMPNVSEIEALGYLAHIRQPTAEYIAGGYTPMLGCSRALFEARIDLFSF", "soluble on expression in E. coli": "not soluble"}
{"sequence": "MGHHHHHHSHRKRPLLAPLCNGLINSYEDKSNDFVCPICFDMIEEAYMTKCGHSFCYKCIHQSLEDNNRCPKCNYVVDNIDHLYPNFLVNELILKQKQRFEEKRFKLDHSVSSTNGHRWQIFQDWLGTDQDNLDLANVNLMLELLVQKKKQLEAESHAAQLQILMEFLKVARRNKREQLEQIQKELSVLEEDIKRVEEMSGLYSPVSED", "soluble on expression in E. coli": "not soluble"}
{"sequence": "MSRLEIYSPEGLRLDGRRWNELRRFESSINTHPHAADGSSYMEQGNNKIITLVKGPKEPRLKSQMDTSKALLNVSVNINKFSKFERSKSSHKNERRVLEIQTSLVRMFEKNVMLNIYPRTVIDIEIHVLEQDGGIMGSLINGITLALIDAGISMFDYISGISVGLYDTTPLLDTNSLEENAMSTVTLGVVGKSEKLSLLLVEDKIPLDRLENVLAIGIAGAHRVRDLMDEELRKHAQKRVSNASAR", "soluble on expression in E. coli": "soluble"}
{"sequence": "MTIYTCTLNLAIDLFIETEELVPFVVNRTKEDDIQANGKGVNVSLILKMLGIDNTALGVKAGFTGNYVEDYLKEKEITTDFIEVAGTTRINVFTKVTQDQKEYKLVNKGPKLSEEHVQRFLKKISELRKGDYLCVSGSLPQGVSPSILIEISRICFEKQVFLILDSSYEEILDCLPYQPFLLKPNEEELQEWFHTEVQTKDDYIFYGQELLKRGAKNILLSLGSEGALFMNNEKVLSGNSPTGMVVNTACSGDAMLGTFLAGWHQGLSLEKNLKRSIAAGSSTAFRKGLTDFSDVQELEQQIKIQEEE", "soluble on expression in E. coli": "not soluble"}
